Reference: the DeepSol protein solubility set

Test: soluble on expression in E. coli; label from the status in PepcDB or PDB records

Row | Sequence | soluble on expression in E. coli
1 | MGSDKIHHHHHHMPDKSLKKPFVHLIGAGPGDPGLITVKGRESLGRADVVIYDYLANDDLLRFARPDAELIYAGKIGGHHNREQWQINALLVEKALAGNVVARLKGGDSFVFGRGGEECEALVAAGIPFEIVPGVTAGIGVTAYAGIPLTHRGVTTSVTFVTGHEGHDKEVSQIDWEGLSLGSGTVVFYMGIKNLPQITANLMAHGRPPETPVALIRWGTRPEQEVLTGTLADIAEQARRTGFRAPAITVVGEVVRLREKLRWFDNRPLFGTSILVTRAADQAGEFGAMLGALGARVLECPTIAIVPPESWDNLDAAIASLDRFHWAVFTSVNAVRFFFERLAAAGKDSRALGNCRVCAVGPKTAAALAPFGIRPDLIPADYKGEGVVEVFRSEEIAGKRIIFPKGDRARDVIPQGLAELGGEVTAPVAYRNVTPDSLPAGVIAELEERRITCVTFTSSSTVENLAAILGENRFLHLLKGVTIAAIGPITARTCRELGLEVHVEPSKYTLAAMTDALVDFFSRSK | not soluble
2 | MSSNRQAYYKNNAKEQIGKEKRNEEVVSIRKDKREEAISKRRNINTQIEDDSETSTTPPGPFDANLLRLTVAAAQSSDPAEQLTAVQQARKMLSTDRNPPIDDLIGSGILPVLVQCLSSTDPNLQFEAAWALTNIASGTSEQTQAVVNAGAVPLFLQLLSCGNLNVCEQSVWALGNIIGDGPHFRDYCLELGILQPLLQFINPEIPIGFLRNVTWVIVNLCRCKDPAPSPAVVRTILPALSLLIHHQDTNILIDTVWALSYLTDGGNEHIQMVIEAQVVTHLVPLLGHVDVKVQTAALRAVGNIVTGTDEQTQLVLDSGVLRFMPGLLAHYKEKINKEAVWFVSNITAGNQQQVQDVFDAGIMPMIIHLLDRGDFPTQKEAAWAISNVTISGRPNQVEQMVKLGVLRPFCAMLSCTDSQIIQVVLDGINNILKMAGEAAEQVTSEIEECGGLDKIENLQNHENEDIYKLAFEIIDNFFSSDDETGNVEGAQSSAFGGDVPPVPDAPNGGWNFGK | not soluble
3 | MGSDKIHHHHHHMSSEIVIRVKNLSKCFNIYDQPRDRLKQAILPRLQRLFGRPQKSYHKEFWALRNADFEIRRGETVGIIGRNGSGKSTLLQLLCGTLTPTHGDIEVTGKVAALLELGAGFNPEFTGRENVFLSGSFYGLTREQVQERFDRIAAFADIGDHIEQPVKTYSSGMFVRLAFAVIAHVDADILVIDEALSVGDAVFTQKCMRFIRSFQEKGTLLFVSHDMQSVVNLCRNAIWLNAGETRMKGTSKNVSEAYLKYTLQEVYGEEAILLSAAPKESTLDAPMFEEAGPPMLDYEAVASVSSNLFDAKGWKTGDAEIEAVQLESLTGENDGILRGGELVRMVVRARAHQPLERPVIGFMVRDRLGQNLFGENTLSLTALDQARVAAGQMFEGEFVFRLPMLPDGQYSVTASVADGDLHNNVQHHLLHDALIINVASSKVRWGLVGVPFERVTLNCI | not soluble
4 | MPPPLPYDAMRSVWTDTAAPAMATAPLAGHADCDVAIVGAGITGLSAALHLAERGLRACVLEARDPGWGASGRNGGQVIPGIKHDPDEILARHGRERGEPLLHMVGTAADTVFDLIDRYGLDLVQAQIRLAAGERLDRVVPADLQPSGHAIELRVYAEDPVRFIPSPGTLAVFELPQGPGVRTETGYHAGNAVSPHYDPMIAKIIVHGADRAQAIARAEQALADTEIAGVKTNLPFLARALAFEPWRQGRLHTGIVARTLAEPAPAALTALEHHHHHH | not soluble
5 | MAEVERQDKYLRQRNKYRFHIIPDGNCLYRAVSKTVYGDQSLHRELREQTVHYIADHLDHFSPLIEGDVGEFIIAAAQDGAWAGYPELLAMGQMLNVNIHLTTGGRLESPTVSTMIHYLGPEDSLRPSIWLSWLSNGHYDAVFDHSYPNPEYDNWCKQTQIQKKRDEELAKSMAISLSKMYIEQNACS | soluble
6 | KRLILLDYDGTLVPFQKRPEDASPTPQLLDTLQKLTADPLNHVVINSGRDHFTLEKWLGALPISFAAEHGAFYKENGVWHKNVHAQEWSPGLLSILKLFVSKTPRSHLEVKETALAWHYRETDAWLGRLRAQQLVNSLISICLKQNLQIMQGNKVIEIKSPEFTKGSEVNRLLLATRYDFILAMGDDTTDDDMFKALPVTAVTVKIGTASESARYNLPVQTDTLPFLQRLTDKSVVKAALKSGLKGQLSSAIDFLKRIINH | not soluble
7 | MMDEKLNFSYLFGSNAPYIEELYEAFLENPDAVDEKWKQYFTDLSKQPGTVAVDVAHTPIRESFVTLAKKKIASAVAGGADEAMLKKQVSVLRLISAYRIQGVGAAQLDPLKRIPPRDIEALDPKFHGLSDADMALQFNMGEGDFANRGKLPLSQIISNLKQTYCGHIALEYIYIPNTEERRWVRNYFESVLSTPHYNADQKRRILKEMTAAETLERYLHTKYVGQKRFGVEGGESAIAGLNYLIQNAGKDGVEEVIIGMAHRGRLNVLVNILGKKPGDLFAEFEGRAEIKLPSGDVKYHMGFSSDIATPHGPMHVSLAFNPSHLEIVNPVVEGSARAKQKRLGENGRDKVLPVLIHGDSAFIGLGVNQATFNLSKTRGYTTGGTVHIVINNQIGFTTSDIRDTRSTVHCTDIAKMVSAPVIHVNGDDPERVCFAIQAALDYRKKFHKDIVIDVVCYRKWGHNEGDDPTLTQPMMYKKVSQHPGARALYTEQLIAEGVVTQAEADGYIQAYRDALDKGEHVEQTTLSNFQRTQIDWSKYQGKDWREHIETGLPAADIERLTEKFTAVPEGFALHPTAKRVIEARKAMASGKQAIDWGMAETLAYASLVTKGHGVRISGEDSGRGTFSHRHAVLHDQKREKWDDGTYVPLRHMGEGMGEFLVIDSILNEEAVMAFEYGFACSAPDKLTIWEAQFGDFANGAQVTIDQFLSSGETKWGRLCGLTTILPHGYDGQGPEHSSARVERWLQLCSENNMQVIMPSEASQMFHLLQRQVLGSYRKPLVIFMSKRLLRFKGAMSPLENFTEGSTFRPVIGDTAERASNDSVKRVVLCAGQVYYDLEAGRAERKLEDDVAIVRVEQLYPFPYDEVKAELAKYPNAKSVVWAQEEPKNQGAFYQIRHRIEDVISEEQKLSYAGRPSSASPAVGYSSKHIAQLKQLVEDALAL | not soluble
8 | MLAVVDEEGTPVAGAMGFAQVVRDGLVVDYIGAVDILRELKATLEESLGAELLKAGVAYPPGTSPGDQKALHYIAEAAGFNVIAALDEPTAANNVLNIEDGAVIDIGGGTTGTAVIGQGQVVCVADEPTGGTHVSLVIAGAYRLPFAEAEKLKMDSCKHQELLPIIKPVIEKIAGIIRQHIQEHPVDQVYLVGGTSCFTGFETIVAAELQRPVIKPANPFLVTPLGIALAAAKTCSNP | not soluble
9 | MKHSVHFGAGNIGRGFIGEILFKNGFHIDFVDVNNQIIHALNEKGKYEIEIAQKGQSRIEVTNVAGINSKEHPEQVIEAIQKTDIITTAIGPNILPFIAELLAKGIEARRVAGNTQALDVMACENMIGGSQFLYQEVKKYLSPEGLTFADNYIGFPNAAVDRIVPAQSHEDSLFVVVEPFNEWVVETKRLKNPDLRLKDVHYEED | not soluble
10 | MTVQTAIFDLIKQAKTIIIHRHQRPDPDAIGSQLGLAAIIKASFPAKRVLTPGKQYHGFDWLGQMDEVTEADYQDALVLILDTANQPRIDGELWNQGKTIVKIDHHPNDDAFGDPQWVDVDASSTSEMIYNWYAPLAAELTLTANAARLLYAGIVGDTGRFLYSATKPSTMRAAAALMEAGADAEAVNRIEDTITLPVARLSAYVYEHLTQLDSGAAYVILTNAILDSFAIGDASTAGVVPLPGRIDTVKCWAIFVQQKEGDFRIRLRSKGPSINGVAKNHDGGGHALASGAKAKDQQEIETVVRELDQVASQYEKEVLEHHHHHH | not soluble
11 | MARAIHVFRTPDRFVAGTVGQPGNRTFYLQAVHDSRVVSVVLEKQQVAVLAERIGALLFEVNRRFGTPVPPEPTEIDDLSPLIMPVDAEFRVGTMGLGWDSEAQSVVVELLAVTDAEFDASVVLDDTEEGPDAVRVFLTPESARQFATRSYRVISAGRPPCPLCDEPLDPEGHICARTNGYRRDVLLGSGDDPAG | soluble
12 | MAGLVDRVSGARLDPAAEAEIRYLEAMIARLEAGEEDPEDFRVFRLKNGIYGIRGRPEHHMIRIKLPVGRITPEGLRVLADVAERYAENRLAHVTTRQAVQLHHVHRRDVPKVLRAVNAVGLTTREACGHSIRAITCCPYAGVSPEEPFDVTPYAEAAYRYFLRHPVGQNLPRKFKIAFEGCAADHARTPIHDIGVVAALEGGKRGFRVYVGGGLGAAPMSAELLEAFTPEEDLLPTMLAIVRLFDRYGNRKVLTQARLKFLVKKWGIAAFREAVREERRLVKLTASGEDLEAWAPPPEPEPPRLPSPPKKPFSFAPGFDAWRRTNLFKQKQEGFYTVTVRLPLGDITPEGLRALAAIAETYAAEVRSAISQNLLLRFVPEEALGGLYEALLEAGLALPEAHTLLDITRCPGADTCNLAITRSRGLAQALEAHLATLPLAQDPGAKAIGVKISGCPNSCGQHHIADIGFYGSSRKVGEREVPHYVLLLGGRTREGEARFGQVVGRLPARRVPEAVERILKRYLEERQNGESFQAYLDRVGAASFKPLLQELQEVPPYEEAPEFYQDLGAEGEAFSVQLGRGECAV | soluble
13 | MGSDKIHHHHHHMFQYFPTNYVWSLSAMIALTHGGQIGEVDQMCAPLVDAARAGNDPGTLAFFNAWKSGADKLAELAEEDKSGGRLLSAGEKLGRAALYYIIAERMQAHDFDGRLALYKHSLDVFLEGVRLARENCERIEIPYQDRHISGLYVRAVGVQGRAPVVVVMNGLDSTKEMLYRSCITSYLSRRGVAVLLVDQPGTGEALRLQKLHAIPQTEIWASKIVDYLQARTDIDPVRIGALGVSLGGYYAPRAVAFEPRFAAGAVWGANHDWREVQKRRLAREGENPVPHYWKHVEWVFGASDLDDFMQCAEAMHLNGVLDRIKVPFLVTHGENDRQIPVQYAHQTYEQLANSPRRELKIFTAREGGVEHSSLDNPTNAGSYIADWLAEQLHGTTA | not soluble
14 | LVSSPSTLNPGTNVAKLAEQAPVHWVSVAQIENSLTGRPPMAVGFDIDDTVLFSSPGFWRGKKTYSPDSDDYLKNPAFWEKMNNGWDEFSIPKEAARQLIDMHVRRGDSIYFVTGRSQTKTETVSKTLADNFHIPAANMNPVIFAGDKPEQNTRVQWLQEKNMRIFYGDSDNDITAARDCGIRGIRILRAANSTYKPLPQAGAFGEEVIVNSEY | soluble
15 | MANGTVLHFRFNVKQIRAKIVRKSYRFFPNDTAGHIRNMHDTMNKIFENSPPAFSYKPIETLNKCIAKVKSDVCHSTGGICKAAMDNVTNWVYNTTEGLFTTGTRLIV | not soluble
16 | MSLTFHEIRFPEDISYGSTGGPEFSTSIVQTNNGSEYRKVNLSYSRNKYNIMYNMKSEDQLLKLINFFYVHKGKAIGFRFKDWSDYKAKKEHIGIGNDKQKKFQIIKTYSIDQHSYIRKITKPVINTVKIYYDDIEKVDGFSVNFSNGQIEFNTPPHNGVTIYADYEFDVPVRFDSDYLPYSMDNYNEHNCNNIALIEIKTEGHHHHHH | soluble
17 | MGSDKIHHHHHHMTSICICDDEKQQRNMLNKIITREMDLWGYPYQIKEYSNGESLVYNLEHENYYIDIIFLDIELGKSNGVDIAKTIRKHSKDTIIIFVTGFSDYVFHGYDVGALNYILKPYKTEKICKVLKEALKKLEQWKENFITVQIGTNLCKINTKDILYFKSELRKLTVVTFDKTLEYYGKLNDMETVLPSNFIRTHQRYIVNLNHVDSITQTYAKVQNEKIPISRKKYQEVVGKFTRYMLES | not soluble
18 | MTKKLIKIWRKEMLALMNEDADWYRNEDTERFKRIQELARKIETANTRQFSSHISKERFEAYQKMGLQFKEIAEEFHITTTALQQWRKDNGYPIYNKNNRK | not soluble
19 | MPFFANSDPMMSKLSQIQFADAPTLKGDKYPDVDAHRIIAPIISPIMEVFDQMKENQRARDQAEKIRKDREDHPLSTSRSLWEMFQRLQRPTTTTTEAPPLIERLFKPYIEPWQKQLDDFSKDMAGITLIPTTTTTPAPTTTTTPNFLEKSLSMFFPSLRRKPQSIPTLPPTTTPTPRLFDPEMFDRLFFKRDKRQATIAPAPKFDIFTVPPPPPLFQEWEKPILSLSNPFTLNPLMKMFTTPSPPQTLAPLPKIPEPNPYEIKKGLPEPQFKLQDPFYNPLFPSRKSKMFDFLAGGEAGRLLG | not soluble
